According to US20240279315A1 (priority 2023, published 2024):
Like-named read-outs stand apart in the source and are kept apart here.

Key:
Assay in all cases: cell-based or functional assay
[1] = target: hemagglutinin (HA) of influenza A/Switzerland/9715293/2013 H3N2 (influenza A virus A/Switzerland/9715293/2013 (H3N2))
[2] = target: hemagglutinin (HA) of influenza A/Brisbane/02/2018 H1N1 (influenza A virus A/Brisbane/02/2018 (H1N1))
[3] = target: hemagglutinin (HA) of influenza B/Colorado/06/2017 B-Vic (influenza B virus B/Colorado/06/2017)
[4] = target: hemagglutinin (HA) of influenza B/Maryland/15/2016 B-Vic (influenza B virus B/Maryland/15/2016)
[5] = target: hemagglutinin (HA) of influenza A/Hong Kong/4801/2014 H3N2 (influenza A virus A/Hong Kong/4801/2014 (H3N2))
[6] = target: hemagglutinin (HA) of influenza B/California/12/2015 B-Yam (influenza B virus B/California/12/2015)
[7] = target: hemagglutinin (HA) of influenza B/Phuket/3073/2013 B-Yam (influenza B virus B/Phuket/3073/2013)
[8] = target: hemagglutinin (HA) of influenza A/Victoria/2570/2019 H1N1 (influenza A virus A/Victoria/2570/2019 (H1N1))
[9] = target: hemagglutinin (HA) of influenza B/Washington/02/2019 B-Vic (influenza B virus B/Washington/02/2019)
[10] = target: hemagglutinin (HA) of influenza A/Kansas/14/2017 H3N2 (influenza A virus A/Kansas/14/2017 (H3N2))
[11] = target: hemagglutinin (HA) of influenza A/Singapore/INFIMH-16-0019/2016 H3N2 (influenza A virus A/Singapore/INFIMH-16-0019/2016 (H3N2))
[12] = target: hemagglutinin (HA) of influenza B/Brisbane/60/2008 B-Vic (influenza B virus B/Brisbane/60/2008)
[13] = target: hemagglutinin (HA) of influenza A/Cambodia/e0826360/2020 H3N2 (influenza A virus A/Cambodia/e0826360/2020 (H3N2))
[14] = target: hemagglutinin (HA) of influenza A/Hong Kong/45/2019 H3N2 (influenza A virus A/Hong Kong/45/2019 (H3N2))
[15] = target: hemagglutinin (HA) of influenza A/Brisbane/02/2018 H1N1 (influenza A virus A/Brisbane/02/2018 (H1N1)); remark: listed apart in the source
[16] = target: hemagglutinin (HA) of influenza A/Wisconsin/588/2019 (influenza A virus A/Wisconsin/588/2019)
[17] = target: hemagglutinin (HA) of influenza A/Sydney/5/2021 (influenza A virus A/Sydney/5/2021)
[18] = target: hemagglutinin (HA) of influenza B/Colorado/06/2017 B-Vic (influenza B virus B/Colorado/06/2017); remark: listed apart in the source
[19] = target: hemagglutinin (HA) of influenza A/Darwin/6/2021 (influenza A virus A/Darwin/6/2021)
[20] = target: hemagglutinin (HA) of influenza B/Austria/1359417/2021 (influenza B virus B/Austria/1359417/2021)
[21] = target: hemagglutinin (HA) of influenza B/Phuket/3073/2013 B-Yam (influenza B virus B/Phuket/3073/2013); remark: listed apart in the source
[22] = target: hemagglutinin (HA) of influenza B/Washington/02/2019 B-Vic (influenza B virus B/Washington/02/2019); remark: listed apart in the source
[23] = target: hemagglutinin (HA) of influenza A/Kansas/14/2017 H3N2 (influenza A virus A/Kansas/14/2017 (H3N2)); remark: listed apart in the source
[24] = target: hemagglutinin (HA) of influenza A/Tasmania/503/2020 (H3N2) (influenza A virus A/Tasmania/503/2020 (H3N2))
[25] = target: hemagglutinin (HA) of influenza A/Singapore/INFIMH-16-0019/2016 H3N2 (influenza A virus A/Singapore/INFIMH-16-0019/2016 (H3N2)); remark: listed apart in the source
[26] = target: hemagglutinin (HA) of influenza A/Hawaii/70/2019 (influenza A virus A/Hawaii/70/2019)
[27] = target: hemagglutinin (HA) of influenza A/Brisbane/02/2018 H1N1 (influenza A virus A/Brisbane/02/2018 (H1N1)); remark: listed apart in the source
[28] = target: hemagglutinin (HA) of influenza A/Victoria/2570/2019 H1N1 (influenza A virus A/Victoria/2570/2019 (H1N1)); remark: listed apart in the source
[29] = target: hemagglutinin (HA) of influenza A/Hong Kong/45/2019 H3N2 (influenza A virus A/Hong Kong/45/2019 (H3N2)); remark: listed apart in the source
[30] = target: hemagglutinin (HA) of influenza A/Cambodia/e0826360/2020 H3N2 (influenza A virus A/Cambodia/e0826360/2020 (H3N2)); remark: listed apart in the source

negative control IgG (antibody)
HAI titer [1]: < 1 titer | HAI titer [2]: < 1 titer | HAI titer [3]: < 1 titer | HAI titer [4]: < 1 titer | HAI titer [5]: < 1 titer | HAI titer [6]: < 1 titer | HAI titer [7]: < 1 titer | HAI titer [8]: < 1 titer | HAI titer [9]: < 1 titer | HAI titer [10]: < 1 titer | HAI titer [11]: < 1 titer | HAI titer [12]: < 1 titer | HAI titer [13]: < 1 titer | HAI titer [14]: < 1 titer

SAB-176 Lot 3 (antibody)
HAI titer [2]: 512 titer | HAI titer ratio of SAB-176 to hIVIG [2]: 16 to 32 X | HAI titer [3]: 256 titer | HAI titer ratio of SAB-176 to hIVIG [3]: 16 to 32 X | HAI titer [4]: 128 titer | HAI titer ratio of SAB-176 to hIVIG [4]: 8 to 16 X | HAI titer [6]: 128 titer | HAI titer ratio of SAB-176 to hIVIG [6]: 16 to 32 X | HAI titer [7]: 128 titer | HAI titer ratio of SAB-176 to hIVIG [7]: 16 X | HAI titer [8]: 256 titer | HAI titer ratio of SAB-176 to hIVIG [8]: 16 to 32 X | HAI titer [9]: 64 titer | HAI titer ratio of SAB-176 to hIVIG [9]: 8 to 16 X | HAI titer [10]: 512 titer | HAI titer ratio of SAB-176 to hIVIG [10]: 16 to 128 X | HAI titer [11]: 512 titer | HAI titer ratio of SAB-176 to hIVIG [11]: 8 to 32 X | HAI titer [13]: 256 titer | HAI titer ratio of SAB-176 to hIVIG [13]: 8 to 16 X

SAB-176 Lot 1 (PD1901102QR) (antibody)
HAI titer [3]: 256 titer | HAI titer ratio of SAB-176 to hIVIG [3]: 16 to 32 X | HAI titer [4]: 256 titer | HAI titer of drug product [4]: 3840 titer | HAI titer ratio of SAB-176 to hIVIG [4]: 16 to 32 X | HAI titer [6]: 128 titer | HAI titer ratio of SAB-176 to hIVIG [6]: 16 to 32 X | HAI titer [7]: 128 titer | HAI titer of drug product [7]: 1920 titer | HAI titer ratio of SAB-176 to hIVIG [7]: 16 X | HAI titer [9]: 64 titer | HAI titer ratio of SAB-176 to hIVIG [9]: 8 to 16 X | HAI titer [10]: 64 titer | HAI titer ratio of SAB-176 to hIVIG [10]: 2 to 16 X | HAI titer [11]: 512 titer | HAI titer of drug product [11]: 7680 titer | HAI titer ratio of SAB-176 to hIVIG [11]: 8 to 32 X | HAI titer [13]: 128 titer | HAI titer ratio of SAB-176 to hIVIG [13]: 4 to 8 X | HAI titer [15]: 1280 titer | HAI titer [16]: 320 titer | HAI titer [17]: 320 titer | HAI titer [18]: 160 titer | HAI titer [19]: 113 titer | HAI titer [20]: 28 titer | HAI titer [21]: 160 titer | HAI titer [22]: 160 titer | HAI titer [23]: 40 titer | HAI titer [24]: 40 titer | HAI titer [25]: 320 titer | HAI titer [26]: 1280 titer | HAI titer [27]: 512 titer | HAI titer ratio of SAB-176 to hIVIG [27]: 16 to 32 X | HAI titer [28]: 256 titer | HAI titer ratio of SAB-176 to hIVIG [28]: 16 to 32 X | HAI titer [14]: 64 titer | HAI titer ratio of SAB-176 to hIVIG [14]: 4 to 8 X

SAB-176 Lot 6 (PD2204315QR) (antibody)
HAI titer of drug substance [7]: 1920 titer | HAI titer of drug substance [8]: 7680 titer | HAI titer of drug substance [9]: 3840 titer | HAI titer of drug substance [13]: 7680 titer | HAI titer [15]: 1280 titer | HAI titer [16]: 1280 titer | HAI titer [17]: 1280 titer | HAI titer [18]: 160 titer | HAI titer [19]: 160 titer | HAI titer [20]: 40 titer | HAI titer [21]: 160 titer | HAI titer [22]: 320 titer | HAI titer [23]: 320 titer | HAI titer [24]: 640 titer | HAI titer [25]: 320 titer | HAI titer [26]: 1810 titer

SAB-176 Lot 4 (PD2102092QR) (antibody)
HAI titer [2]: 512 titer | HAI titer ratio of SAB-176 to hIVIG [2]: 16 to 32 X | HAI titer [3]: 256 titer | HAI titer ratio of SAB-176 to hIVIG [3]: 16 to 32 X | HAI titer [4]: 256 titer | HAI titer ratio of SAB-176 to hIVIG [4]: 16 to 32 X | HAI titer [6]: 128 titer | HAI titer ratio of SAB-176 to hIVIG [6]: 16 to 32 X | HAI titer [7]: 128 titer | HAI titer of drug product [7]: 3840 titer | HAI titer ratio of SAB-176 to hIVIG [7]: 16 X | HAI titer [8]: 256 titer | HAI titer [9]: 128 titer | HAI titer of drug product [9]: 960 titer | HAI titer ratio of SAB-176 to hIVIG [9]: 16 to 32 X | HAI titer [10]: 256 titer | HAI titer ratio of SAB-176 to hIVIG [10]: 8 to 64 X | HAI titer of drug product [29]: 1920 titer | HAI titer [11]: 512 titer | HAI titer ratio of SAB-176 to hIVIG [11]: 8 to 32 X | HAI titer [13]: 256 titer | HAI titer ratio of SAB-176 to hIVIG [13]: 8 to 16 X | HAI titer [15]: 1280 titer | HAI titer [16]: 640 titer | HAI titer [17]: 320 titer | HAI titer [18]: 160 titer | HAI titer [19]: 160 titer | HAI titer [20]: 40 titer | HAI titer [21]: 160 titer | HAI titer [22]: 160 titer | HAI titer [23]: 320 titer | HAI titer [24]: 320 titer | HAI titer [25]: 640 titer | HAI titer [26]: 905 titer | HAI titer ratio of SAB-176 to hIVIG [28]: 16 to 32 X | HAI titer [14]: 256 titer | HAI titer ratio of SAB-176 to hIVIG [14]: 16 to 32 X | HAI titer ratio of SAB-176 to hIVIG [30]: 32 X
